In patent US20260070976A1:

Legend:
[1] = biological target: recombinant cynomolgus PILRB (cynomolgus monkey); test: SPR, Carterra LSA, antibody amine-coupled, kinetic fit
[2] = biological target: recombinant cynomolgus PILRB (cynomolgus monkey); test: SPR, Biacore T200, antibody captured by anti-Fab

Binder	Kd [1]	Kd [2]
X20 (antibody, human IgG4, V domains shown) VH: QVQLVQSGAEVKKPGSSVKVSCKASGYNFLHYDVNWVRQAPGQGLEWMGGIIPIFGTANYAQKFQGRVTITADESTSTAYMELSSLRSEDTAVYYCATAVGAGWFDPWGQGTLVTVSS VL: DIVMTQSPDSLAVSLGERATINCKSSQSVYFSENNKNYLAWYQQKPGQPPKLLIYWASTRESGVPDRFSGSGSGTDFTLTISSLQAEDVAVYYCQQYYEEPYTFGQGTRLEIK	0.1 nM	–
X18 (antibody, human IgG4, V domains shown) VH: QVQLVQSGAEVKKPGSSVKVSCKASGYNFLHYDVNWVRQAPGQGLEWMGGIIPIFGTANYAQKFQGRVTITADESTSTAYMELSSLRSEDTAVYYCATAVGAGWFDTWGQGTLVTVSS VL: DIVMTQSPDSLAVSLGERATINCKSSQSVWFDPNNKNYLAWYQQKPGQPPKLLIYWASTRESGVPDRFSGSGSGTDFTLTISSLQAEDVAVYYCQQYFEEPYTFGQGTRLEIK	0.3 nM	–
X11 (antibody, human IgG4, V domains shown) VH: QVQLVQSGAEVKKPGSSVKVSCKASGYNFLNYDVNWVRQAPGQGLEWMGGIIPIFGTANYAQKFQGRVTITADESTSTAYMELSSLRSEDTAVYYCATGVGAGWFDPWGQGTLVTVSS VL: DIVMTQSPDSLAVSLGERATINCKSSQSVYFSENNKNYLAWYQQKPGQPPKLLIYWASTRESGVPDRFSGSGSGTDFTLTISSLQAEDVAVYYCQQYYEEPYTFGQGTRLEIK	0.5 nM	0.4 nM
X17 (antibody, human IgG4, V domains shown) VH: QVQLVQSGAEVKKPGSSVKVSCKASGYNFLHYDVNWVRQAPGQGLEWMGGIIPIFGTANYAQKFQGRVTITADESTSTAYMELSSLRSEDTAVYYCATAVGAGWFDTWGQGTLVTVSS VL: DIVMTQSPDSLAVSLGERATINCKSSQSVFFDENNKNYLAWYQQKPGQPPKLLIYWASTRESGVPDRFSGSGSGTDFTLTISSLQAEDVAVYYCQQYFEEPYTFGQGTRLEIK	0.3 nM	–
X7 (antibody, human IgG4, V domains shown) VH: QVQLVQSGAEVKKPGSSVKVSCKASGYNFLNYDVNWVRQAPGQGLEWMGGIIPIFGTANYAQKFQGRVTITADESTSTAYMELSSLRSEDTAVYYCATGVGAGWFDPWGQGTLVTVSS VL: DIVMTQSPDSLAVSLGERATINCKSSQSVFFDENNKNYLAWYQQKPGQPPKLLIYWASTRESGVPDRFSGSGSGTDFTLTISSLQAEDVAVYYCQQYFEEPYTFGQGTRLEIK	0.5 nM	–
X4 (antibody, human IgG4, V domains shown) VH: QVQLVQSGAEVKKPGSSVKVSCKASGYNFLNYDVNWVRQAPGQGLEWMGGIIPIFGTANYAQKFQGRVTITADESTSTAYMELSSLRSEDTAVYYCATGVGAGWFDPWGQGTLVTVSS VL: DIVMTQSPDSLAVSLGERATINCKSSQSVYFSPNNKNYLAWYQQKPGQPPKLLIYWASTRESGVPDRFSGSGSGTDFTLTISSLQAEDVAVYYCQQYFEEPYTFGQGTRLEIK	0.3 nM	–
X14 (antibody, human IgG4, V domains shown) VH: QVQLVQSGAEVKKPGSSVKVSCKASGYNFLHYDVNWVRQAPGQGLEWMGGIIPIFGTANYAQKFQGRVTITADESTSTAYMELSSLRSEDTAVYYCATAVGAGWFDTWGQGTLVTVSS VL: DIVMTQSPDSLAVSLGERATINCKSSQSVYFSPNNKNYLAWYQQKPGQPPKLLIYWASTRESGVPDRFSGSGSGTDFTLTISSLQAEDVAVYYCQQYFEEPYTFGQGTRLEIK	0.2 nM	–
